This is an account of results in patent US20150196651A1 (published 2015).

Numbered stars: 1 amine (or outer) side, 2 acyl side, 3 side chain; on linkers, the order of the positions; unused ones are H or OH. Square brackets hold non-standard residues; d marks the D form. Side chains are listed from the residue outwards. Ends that are not written are not given here. * marks the point of attachment. γGlu = O=C(O)[C@H](CCC(=O)[*:2])N[*:1]; 1Nal = N[C@@H](Cc1cccc2ccccc12)C(=O)O; Stearoyl = CCCCCCCCCCCCCCCCCC(=O)*; Palmitoyl = CCCCCCCCCCCCCCCC(=O)*; Myristoyl = CCCCCCCCCCCCCC(=O)*; PheCl2 = dichlorophenylalanine; Lauroyl = CCCCCCCCCCCC(=O)*; PheNO2 = nitrophenylalanine; Decanoyl = CCCCCCCCCC(=O)*; Nle = CCCC[C@H](N)C(=O)O; Octanoyl = CCCCCCCC(=O)*

For assay [1], the target named is T1, rat PrRP receptor in RC-4B/C cells (rat, UniProt Q64121 1-370).
T1 construct: whole, on cells; endogenous receptor of RC-4B/C cells (ATCC); also called rat receptor; GPR10 receptor expressed in rat hypophyseal cells
T1 sequence (looked up): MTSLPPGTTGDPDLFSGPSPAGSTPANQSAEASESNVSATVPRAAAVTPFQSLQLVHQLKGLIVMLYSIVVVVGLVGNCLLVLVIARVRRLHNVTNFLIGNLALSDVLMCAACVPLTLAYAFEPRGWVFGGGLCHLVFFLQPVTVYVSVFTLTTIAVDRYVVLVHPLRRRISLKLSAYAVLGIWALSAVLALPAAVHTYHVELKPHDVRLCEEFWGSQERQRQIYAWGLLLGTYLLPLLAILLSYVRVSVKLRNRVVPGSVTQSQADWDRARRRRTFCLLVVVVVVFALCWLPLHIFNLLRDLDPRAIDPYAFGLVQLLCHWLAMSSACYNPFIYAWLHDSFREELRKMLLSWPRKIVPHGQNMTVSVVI
The experiment in a line: competition with 125I-rat PrRP31, RC-4B/C cells. The procedure, abridged:
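Incubation 60 min at room temperature; cells solubilized in 0.1 mol/l NaOH and bound radioactivity γ-counted. Run in duplicate, repeated at least three times.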

Assay [2] addresses T2, human PrRP receptor GPR10 (human, UniProt P49683 1-370).
T2 construct: whole, on cells; also called GPR10 human receptor transfected in CHO cells; human GPR10 receptor
T2 sequence (looked up): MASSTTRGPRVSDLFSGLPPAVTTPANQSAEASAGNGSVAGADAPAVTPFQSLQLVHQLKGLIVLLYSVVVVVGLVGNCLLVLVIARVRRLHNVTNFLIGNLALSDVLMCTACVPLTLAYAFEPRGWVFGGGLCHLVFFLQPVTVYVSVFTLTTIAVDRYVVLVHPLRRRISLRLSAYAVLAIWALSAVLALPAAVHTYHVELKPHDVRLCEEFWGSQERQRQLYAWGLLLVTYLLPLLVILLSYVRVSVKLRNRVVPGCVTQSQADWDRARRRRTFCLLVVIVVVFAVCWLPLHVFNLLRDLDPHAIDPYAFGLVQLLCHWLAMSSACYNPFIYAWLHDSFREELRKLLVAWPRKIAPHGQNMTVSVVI
The experiment in a line: competition with 125I-human PrRP31, CHO cells with human GPR10.

Broadly, the Ki is the dissociation constant of the complex between target and ligand, obtained from inhibition or displacement. High values mean lower affinity, low ones higher affinity. On to Palmitoyl-SRAHQHS[Nle]ETRTPDINPAWYTGRGIRPVGR[1Nal]-NH2 [analog no. 12], for which, in assay [1], the “% of PrRP31” value came to 227% and affinity was put at a Ki of 2.17 nM. Also, in assay [2], the “% of PrRP31” value came to 91% and the Ki was 4.27 nM.

In the case of SRAHQHS[Nle]ETRTPDINPAWYTGRGIRPVGR[PheCl2]-NH2 [analog no. 13], the “% of PrRP31” value turned out to be 128% in assay [1] and 171% in assay [2]. Also, the figures for the Ki in assay [1] and in assay [2] were 3.84 nM and 2.27 nM, respectively.

Turning to Myristoyl-SHQRPADTHWYPRG[Nle]FPTIGRITARNGEVSR (scrambled peptide; also called 20 scram) [analog no. 20], in assay [1], the “% of PrRP31” value stood at 4.6% and the affinity corresponds to a Ki of 123 nM. In assay [2], the “% of PrRP31” value stood at 1.5% and the affinity, expressed as Ki, was 262 nM.

Turning to Octanoyl-SRAHQHS[Nle]ETRTPDINPAWYTGRGIRPVGRF-NH2 [analog no. 4], in assay [1], the “% of PrRP31” value amounted to 503% and the affinity, expressed as Ki, was 0.98 nM. In addition, in assay [2], the “% of PrRP31” value amounted to 254% and the Ki is 1.53 nM.

Consider Myristoyl-SRAHQHS[Nle]ETRTPDINPAWYTGRGIRPVGR[PheNO2]-NH2 [analog no. 17], for which, in assay [1], the “% of PrRP31” value came out at 250% and the Ki came out at 1.97 nM. Besides, in assay [2], the “% of PrRP31” value was 245% and the Ki is 1.59 nM.

As to Myristoyl-SRAHQHS[Nle]ETRTPDINPAWYTGRGIRPVGRF-NH2 [analog no. 7], in assay [1], the “% of PrRP31” value was 714% and the Ki stood at 0.69 nM. Moreover, in assay [2], the “% of PrRP31” value is 548% and the Ki worked out at 0.71 nM.

Regarding Palmitoyl-SRAHQHS[Nle]ETRTPDINPAWYTGRGIRPVGRF-NH2 [analog no. 8], in assay [1], the “% of PrRP31” value worked out at 967% and the inhibition constant (Ki) is 0.51 nM. In addition, in assay [2], the “% of PrRP31” value was 128% and the Ki worked out at 3.03 nM.

For Decanoyl-SRAHQHS[Nle]ETRTPDINPAWYTGRGIRPVGRF-NH2 [analog no. 5], the “% of PrRP31” value in assay [1] turned out to be 758%; in assay [2], 266%. In addition, the Ki in assay [1] was determined as 0.65 nM; in assay [2], 1.46 nM.

Regarding Myristoyl-SRAHQHS[Nle]ETRTPDINPAWYTGRGIRPVGR[PheCl2]-NH2 [analog no. 14], in assay [1], the “% of PrRP31” value was 275% and the affinity, expressed as Ki, was 1.79 nM. Further, in assay [2], the “% of PrRP31” value came out at 409% and the Ki came to 0.95 nM.

For Stearoyl-SRAHQHS[Nle]ETRTPDINPAWYTGRGIRPVGRF-NH2 [analog no. 9], in assay [1], the “% of PrRP31” value was determined as 514% and the affinity, expressed as Ki, was 0.96 nM. For the same molecule, in assay [2], the “% of PrRP31” value was determined as 72% and the affinity, expressed as Ki, was 5.39 nM.

In the case of Palmitoyl-SRAHQHS[Nle]ETRTPDINPAWYTGRGIRPVGR[PheCl2]-NH2 [analog no. 15], in assay [1], the “% of PrRP31” value came to 379% and the Ki came to 1.3 nM. Also, in assay [2], the “% of PrRP31” value came to 370% and the Ki was found to be 1.05 nM.

Take Myristoyl-SRAHQHS[Nle]ETRTPDINPAWYTGRGIRPVGR[1Nal]-NH2 [analog no. 11]: the “% of PrRP31” value in assay [1] is 124%; in assay [2] it was 292%. The Ki in assay [1] stood at 3.96 nM; in assay [2], 1.33 nM.

B1: analog no. 56 (peptide)
peptide: SETHEHSMEIK([γGlu-Palmitoyl])TPDINPAWYASRGIRPVGRF-NH2
modifications: N-terminus assumed
SMILES: CCCCCCCCCCCCCCCC(=O)N[C@@H](CCC(=O)NCCCC[C@H](NC(=O)[C@@H](NC(=O)[C@H](CCC(=O)O)NC(=O)[C@H](CCSC)NC(=O)[C@H](CO)NC(=O)[C@H](Cc1c[nH]cn1)NC(=O)[C@H](CCC(=O)O)NC(=O)[C@H](Cc1c[nH]cn1)NC(=O)[C@@H](NC(=O)[C@H](CCC(=O)O)NC(=O)[C@@H](N)CO)[C@@H](C)O)[C@@H](C)CC)C(=O)N[C@H](C(=O)N1CCC[C@H]1C(=O)N[C@@H](CC(=O)O)C(=O)N[C@H](C(=O)N[C@@H](CC(N)=O)C(=O)N1CCC[C@H]1C(=O)N[C@@H](C)C(=O)N[C@@H](Cc1c[nH]c2ccccc12)C(=O)N[C@@H](Cc1ccc(O)cc1)C(=O)N[C@@H](C)C(=O)N[C@@H](CO)C(=O)N[C@@H](CCCNC(=N)N)C(=O)NCC(=O)N[C@H](C(=O)N[C@@H](CCCNC(=N)N)C(=O)N1CCC[C@H]1C(=O)N[C@H](C(=O)NCC(=O)N[C@@H](CCCNC(=N)N)C(=O)N[C@@H](Cc1ccccc1)C(N)=O)C(C)C)[C@@H](C)CC)[C@@H](C)CC)[C@@H](C)O)C(=O)O
B1: in assay [1], the “% of PrRP31” value was found to be 57% and the affinity, expressed as Ki, was 4.23 nM. Also, in assay [2], the “% of PrRP31” value amounted to 57% and the Ki stood at 5.66 nM.

As to SRTHRHSMEIKTPDINPAWYASRGIRPVGRF-NH2 (not fully specified (residue 11)) [analog no. 57], in assay [1], the “% of PrRP31” value was determined as 663% and the affinity, expressed as Ki, was 0.36 nM. Further, in assay [2], the “% of PrRP31” value was determined as 103% and the Ki stood at 3.79 nM.

B2: analog no. 59 (peptide)
peptide: SRTHRHSMEIKTPDINPAWYASRGIRPVGRF
modifications: (N-palm(N-POE)) at the N-terminus; K(N-palm(N-POE)) at residue 11; C-terminal amide
Take B2: in assay [1], the “% of PrRP31” value stood at 85% and the inhibitory constant (Ki) was 2.82 nM. For the same molecule, in assay [2], the “% of PrRP31” value worked out at 12% and the affinity, expressed as Ki, was 32.4 nM.

As to Lauroyl-SRAHQHS[Nle]ETRTPDINPAWYTGRGIRPVGRF-NH2 [analog no. 6], in assay [1], the “% of PrRP31” value worked out at 1260% and the Ki came to 0.39 nM. Moreover, in assay [2], the “% of PrRP31” value stood at 327% and affinity was put at a Ki of 1.19 nM.

B3: analog no. 2 (peptide)
peptide: Myristoyl-TPDINPAWYASRGIRPVGRF-NH2
SMILES: CCCCCCCCCCCCCC(=O)N[C@H](C(=O)N1CCC[C@H]1C(=O)N[C@@H](CC(=O)O)C(=O)N[C@H](C(=O)N[C@@H](CC(N)=O)C(=O)N1CCC[C@H]1C(=O)N[C@@H](C)C(=O)N[C@@H](Cc1c[nH]c2ccccc12)C(=O)N[C@@H](Cc1ccc(O)cc1)C(=O)N[C@@H](C)C(=O)N[C@@H](CO)C(=O)N[C@@H](CCCNC(=N)N)C(=O)NCC(=O)N[C@H](C(=O)N[C@@H](CCCNC(=N)N)C(=O)N1CCC[C@H]1C(=O)N[C@H](C(=O)NCC(=O)N[C@@H](CCCNC(=N)N)C(=O)N[C@@H](Cc1ccccc1)C(N)=O)C(C)C)[C@@H](C)CC)[C@@H](C)CC)[C@@H](C)O
With B3, in assay [1], the “% of PrRP31” value stood at 1030% and the Ki came out at 0.48 nM. In addition, in assay [2], the “% of PrRP31” value amounted to 90% and the inhibition constant Ki stood at 4.33 nM.

SRAHQHS[Nle]ETRTPDINPAWYTGRGIRPVGR[PheNO2]-NH2 [analog no. 16]: in assay [1], the “% of PrRP31” value was found to be 2.5% and the affinity, expressed as Ki, was 19.9 nM. In assay [2], the “% of PrRP31” value is 81% and the inhibition constant Ki is 4.8 nM.

Consider SRAHQHS[Nle]ETRTPDINPAWYTGRGIRPVGR[1Nal]-NH2 [analog no. 10], for which, in assay [1], the “% of PrRP31” value was found to be 4.8% and the Ki is 102 nM. In addition, in assay [2], the “% of PrRP31” value amounted to 11% and the Ki worked out at 34.5 nM.

Take Palmitoyl-SRAHQHS[Nle]ETRTPDINPAWYTGRGIRPVGR[PheNO2]-NH2 [analog no. 18]: the entries for the “% of PrRP31” value in assay [1] and in assay [2] were 850% and 505%, respectively. Also, the Ki stood at 0.58 nM in assay [1] and 0.77 nM in assay [2].
